The source of these data is article PMC11162469, “Discovery of RXFP2 genetic association in resistant hypertensive men and RXFP2 antagonists for the treatment of resistant hypertension” (Scientific Reports, 2024).

Assay [1] has as its target T1, rat RXFP2 (Rattus norvegicus, UniProt F7EMH8). The experiment in a line: INSL3-stimulated cAMP assay in HEK293 stably expressing rat RXFP2.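 Note: cAMP measured with an HitHunter kit in 384-well plates, 11-point dose–response curves up to 1 µM antibody, four-parameter variable-slope fit.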 Conditions: INSL3 EC80-stimulated cAMP, stable expression, N = 2.
Protocol: (§1) RXFP activity assays were developed in HEK293 with stable expression of RXFP2 or RXFP1.
(§2) The same approach was used to generate stable HEK293 lines expressing human and rat RXFP1 and RXFP2 cDNA. The cAMP assay was conducted using the Eurofin Hithunter kit per manufacturer’s instructions in a 384-well format. All dose curve fitting and EC50 and IC50 determinations were performed in Prism (v9.3.0) using the non-linear fit, variable slope (four parameter) function.
For another assay, the target named is human RXFP2 (Homo sapiens, UniProt Q8WXD0). The experiment in a line: INSL3-stimulated cAMP assay in HEK293 stably expressing human RXFP2. In general terms: Cyclic AMP is a second messenger, typically raised through Gs and lowered through Gi signalling.
Assay [2] concerns the target T1, rat RXFP2. The experiment in a line: INSL3-stimulated CYP11B2 mRNA expression in H295R stably expressing rat RXFP2. Type of assay: cell-based. On the set-up: expressed in transfected cells. The following applies: INSL3 EC80 (3.5 nM), 48 h, qPCR; N = 2. In short, it runs like this:
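H295R cells stably expressing rat RXFP2 pretreated with antagonist, then stimulated 48 h with INSL3 at EC80 (3.5 nM). CYP11B1 and CYP11B2 mRNA quantified by qPCR as fold change. IC50 derived from fold change versus inhibitor concentration (nM).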

Another assay addresses T2, rat RXFP1 (Rattus norvegicus, UniProt Q6R6I6).
T2 sequence (Q6R6I6 1-758): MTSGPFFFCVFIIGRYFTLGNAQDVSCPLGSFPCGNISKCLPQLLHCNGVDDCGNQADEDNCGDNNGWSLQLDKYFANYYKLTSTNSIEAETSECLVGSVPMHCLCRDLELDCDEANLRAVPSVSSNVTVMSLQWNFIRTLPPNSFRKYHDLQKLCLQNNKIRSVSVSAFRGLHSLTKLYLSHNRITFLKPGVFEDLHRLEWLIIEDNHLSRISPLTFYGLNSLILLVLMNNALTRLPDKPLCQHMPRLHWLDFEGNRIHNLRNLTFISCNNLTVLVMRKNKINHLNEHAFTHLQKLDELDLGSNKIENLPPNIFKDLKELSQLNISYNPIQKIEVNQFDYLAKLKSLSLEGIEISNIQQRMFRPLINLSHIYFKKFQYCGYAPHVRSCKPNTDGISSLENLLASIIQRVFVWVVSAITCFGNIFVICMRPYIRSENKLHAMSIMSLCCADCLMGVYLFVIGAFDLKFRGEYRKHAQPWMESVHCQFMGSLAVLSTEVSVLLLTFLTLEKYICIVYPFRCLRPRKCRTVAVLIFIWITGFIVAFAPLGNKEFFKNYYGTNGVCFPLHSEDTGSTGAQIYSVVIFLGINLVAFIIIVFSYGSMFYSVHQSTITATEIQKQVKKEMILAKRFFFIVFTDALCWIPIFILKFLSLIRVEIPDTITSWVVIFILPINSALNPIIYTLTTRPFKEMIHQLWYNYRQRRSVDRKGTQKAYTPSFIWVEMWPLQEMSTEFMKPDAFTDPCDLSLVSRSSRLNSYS
The experiment in a line: Relaxin-stimulated cAMP assay in HEK293 stably expressing rat RXFP1. Conditions: three-point selectivity screen, n = 2.

T1 sequence (F7EMH8 20-737): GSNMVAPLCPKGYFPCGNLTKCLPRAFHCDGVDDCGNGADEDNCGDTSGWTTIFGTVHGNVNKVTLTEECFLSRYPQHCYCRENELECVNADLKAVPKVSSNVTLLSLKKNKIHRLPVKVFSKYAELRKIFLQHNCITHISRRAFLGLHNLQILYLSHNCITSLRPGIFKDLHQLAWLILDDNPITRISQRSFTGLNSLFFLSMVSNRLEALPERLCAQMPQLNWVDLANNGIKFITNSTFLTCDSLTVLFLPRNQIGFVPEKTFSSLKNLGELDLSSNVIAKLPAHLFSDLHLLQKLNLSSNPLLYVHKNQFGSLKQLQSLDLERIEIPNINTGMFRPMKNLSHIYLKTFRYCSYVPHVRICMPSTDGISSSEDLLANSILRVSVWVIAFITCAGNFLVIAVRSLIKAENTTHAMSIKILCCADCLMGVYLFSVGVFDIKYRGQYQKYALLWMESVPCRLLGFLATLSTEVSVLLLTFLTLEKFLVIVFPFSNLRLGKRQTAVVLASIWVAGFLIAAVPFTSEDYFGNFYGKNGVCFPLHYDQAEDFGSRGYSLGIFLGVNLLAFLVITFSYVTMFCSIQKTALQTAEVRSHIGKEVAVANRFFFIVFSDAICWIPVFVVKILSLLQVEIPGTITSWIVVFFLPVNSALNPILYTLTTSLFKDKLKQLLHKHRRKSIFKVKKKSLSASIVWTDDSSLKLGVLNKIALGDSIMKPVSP
Sequence of human RXFP2 (Q8WXD0 whole entry): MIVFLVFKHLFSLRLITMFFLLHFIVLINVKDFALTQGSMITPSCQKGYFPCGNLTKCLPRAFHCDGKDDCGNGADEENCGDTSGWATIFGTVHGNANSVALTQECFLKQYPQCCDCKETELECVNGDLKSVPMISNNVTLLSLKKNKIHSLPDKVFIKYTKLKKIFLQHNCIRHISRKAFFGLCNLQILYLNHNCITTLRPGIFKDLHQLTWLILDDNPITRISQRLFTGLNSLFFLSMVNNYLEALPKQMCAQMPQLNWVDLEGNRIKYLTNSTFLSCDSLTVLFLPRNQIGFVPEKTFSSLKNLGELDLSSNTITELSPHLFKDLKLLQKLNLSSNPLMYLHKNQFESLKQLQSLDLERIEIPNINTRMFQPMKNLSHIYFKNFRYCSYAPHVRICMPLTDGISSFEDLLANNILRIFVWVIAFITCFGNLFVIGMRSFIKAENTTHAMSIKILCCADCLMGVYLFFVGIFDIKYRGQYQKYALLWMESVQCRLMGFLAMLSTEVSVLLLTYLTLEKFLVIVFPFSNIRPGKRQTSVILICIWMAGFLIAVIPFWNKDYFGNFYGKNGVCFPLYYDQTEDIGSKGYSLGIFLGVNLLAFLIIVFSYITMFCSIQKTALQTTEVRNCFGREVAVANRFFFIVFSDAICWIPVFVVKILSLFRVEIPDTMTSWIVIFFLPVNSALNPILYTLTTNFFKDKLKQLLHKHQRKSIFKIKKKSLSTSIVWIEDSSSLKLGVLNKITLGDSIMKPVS
Protocol for rat RXFP1: as §1, §2

B1: 4G6: Human/rat cross-reactive RXFP2 monoclonal antibody, rat IgG2b backbone; binds the LDLa domain (antibody, V domains shown)
VH: EVQLQQSGPELVKPGASVKLSCKASGYTFTSYVMHWVKQKPEQGLEWIGYKNPSNDGIKYNEKFKGKATLTSDKSSNIAYMELFSLTSEDSAVYYCARSDFGSVWAMDYWGQGTSVTVSS
VL: SIVMTQTPKFLLVSAGDRVTITCKASQSVNDDIVWYQQKPGQSPKLLIYYASNRYTGVPDRFTGSGYGTDFTFTISTVQAGDLAVYFCQQDYSSPFTFGSGTKLEIK
Take B1: in the assay with rat RXFP2 [1], the “HEK293-rat RXFP2 cAMP % Max Response” value was 82.5%. Moreover, the IC50 turned out to be 14.1 nM with rat RXFP2 [1] (read-out: HEK293-rat RXFP2 cAMP IC50); 15.6 nM in the assay with human RXFP2 (read-out: HEK293-human RXFP2 cAMP IC50, INSL3 EC80-stimulated cAMP, stable expression, N = 2); 0.1 nM with rat RXFP2 [2]. The “blockade of hRXFP2” value in the assay with human RXFP2 (INSL3-stimulated cAMP, HEK293-hRXFP2) is “strong blockade”. For the same molecule, the “HEK293-human RXFP2 cAMP % Max Response” value in the assay with human RXFP2 (INSL3 EC80-stimulated cAMP, stable expression, N = 2) is given as 84.5%. Besides, the “blockade of rRXFP1 (relaxin-stimulated cAMP)” value with rat RXFP1 is listed as “did not block”.

For orientation: IC50 means the concentration at which inhibition is half-maximal.
